The target of one data set is bovine thrombin (bovine) (UniProt P00735). As to the kind of experiment: cell-based or functional assay.
In data set [1] the target is glucose oxidase. Nature of the data set: glucose oxidase capture on discs with IgG polymer, illuminated against nonilluminated.
Data set [2] deals with glucose oxidase. As to the kind of experiment: polyester discs with IgG polymer, illuminated, washed; glucose oxidase at 0.1 mg/ml 1 h, washed; bound glucose oxidase read with glucose/HRP/TMB; n=5, SEM 0.059.
Data set [3] concerns the target glucose oxidase. Nature of the data set: polyester discs with IgG polymer, not illuminated, washed; glucose oxidase at 0.1 mg/ml 1 h, washed; bound glucose oxidase read with glucose/HRP/TMB; n=5, SEM 0.021.
Data set [4] has as its target biotin derivatized horseradish peroxidase (horseradish) (UniProt P00433). Nature of the data set: glass rods with photoimmobilized streptavidin polymer, biotin-HRP at 9 µg/ml 1 h, washed, TMB peroxidase substrate; average of 3.
The target is the same in data set [5]. As to the kind of experiment: biotin-HRP bound to glass rods, adsorbed against photoimmobilized streptavidin polymer.
For data set [6] the target is unchanged. As to the kind of experiment: glass rods with adsorbed (nonilluminated) streptavidin polymer, biotin-HRP at 9 µg/ml 1 h, washed, TMB peroxidase substrate; average of 3.
In data set [7] the test system is hirudin polymer (photoreactive polyacrylamide containing hirudin ligands).
In data set [8] the target is tritium labeled human thrombin (human) (UniProt P00734). Nature of the data set: 3H-thrombin binding, PE coated with 25 µg/cm^2 hirudin polymer against uncoated PE.
Data set [9] has the same target. As to the kind of experiment: 3H-thrombin at 2 µg/ml, 1 h, on SR coated with photoimmobilized hirudin polymer (1.0 µg/cm^2 added); scintillation counting.
For data set [10] the target is unchanged. Nature of the data set: 3H-thrombin at 2 µg/ml, 1 h, on PU coated with photoimmobilized hirudin polymer (1.0 µg/cm^2 added); scintillation counting.
The target is the same in data set [11]. As to the kind of experiment: 3H-thrombin at 2 µg/ml, 1 h, on SR coated with photoimmobilized hirudin polymer (5.0 µg/cm^2 added); scintillation counting.
For data set [12] the target is unchanged. As to the kind of experiment: 3H-thrombin at 2 µg/ml, 1 h, on PU coated with photoimmobilized hirudin polymer (5.0 µg/cm^2 added); scintillation counting.
Data set [13] has the same target. Nature of the data set: 3H-thrombin at 2 µg/ml, 1 h, on PE coated with photoimmobilized hirudin polymer (1.0 µg/cm^2 added); scintillation counting.
Data set [14] has the same target. As to the kind of experiment: 3H-thrombin at 2 µg/ml, 1 h, on PE coated with photoimmobilized hirudin polymer (25 µg/cm^2 added); scintillation counting.
Data set [15] shares this target. Nature of the data set: 3H-thrombin at 2 µg/ml, 1 h, on PE coated with photoimmobilized hirudin polymer (5.0 µg/cm^2 added); scintillation counting.
For data set [16] the target is unchanged. As to the kind of experiment: 3H-thrombin at 2 µg/ml, 1 h, on PU coated with photoimmobilized hirudin polymer (25 µg/cm^2 added); scintillation counting.
Data set [17] shares this target. As to the kind of experiment: 3H-thrombin binding, PU coated with 25 µg/cm^2 hirudin polymer against uncoated PU.

Sequence of biotin derivatized horseradish peroxidase (horseradish) (P00433 31-338): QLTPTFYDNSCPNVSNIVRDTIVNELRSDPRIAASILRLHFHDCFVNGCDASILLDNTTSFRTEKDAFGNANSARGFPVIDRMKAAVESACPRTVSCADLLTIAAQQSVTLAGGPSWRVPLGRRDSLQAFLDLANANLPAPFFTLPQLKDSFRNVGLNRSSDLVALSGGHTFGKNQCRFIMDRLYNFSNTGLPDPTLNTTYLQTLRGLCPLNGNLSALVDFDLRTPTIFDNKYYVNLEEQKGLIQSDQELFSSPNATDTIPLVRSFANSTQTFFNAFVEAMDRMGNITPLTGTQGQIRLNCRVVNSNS

recombinant hirudin displayed a specific activity (antithrombin units per mg of hirudin); remaining thrombin activity on chromogenic substrate Chromozym TH with bovine thrombin (bovine) of 11700 ATU/mg.
In the data set with glucose oxidase [1], “IgG polymer (photoreactive polyacrylamide containing tritiated rabbit anti-glucose oxidase IgG ligands) (antibody)” displayed a percent greater activity, illuminated against nonilluminated of 61%. In addition, the results for the IgG Activity (A655) with glucose oxidase [2] and in the data set with glucose oxidase [3] were 1.08 A655 and 0.669 A655, respectively.
Turning to “streptavidin polymer (photoreactive polyacrylamide containing streptavidin ligands) (from UniProt P22629 37-163)”, the Absorbance of Biotin-HRP stood at 1 absorbance in data set [4] and 0.285 absorbance in [6]. This substance registered a fold less peroxidase activity than covalent streptavidin polymer in [5] of 3.5 fold.
In the case of bovine thrombin, in [7], the “decrease in antithrombin activity after incorporation of hirudin into the polymer” value is recorded as “only a 13% decrease in its activity”.
Turning to “hirudin polymer (photoreactive polyacrylamide containing hirudin ligands)”, the fold greater thrombin binding than uncoated biomaterial turned out to be 200 fold in data set [8] and 23 fold in data set [17]. In addition, the Bound thrombin in [9] is 0.004 µg/cm^2; in [10], 0.028 µg/cm^2; in data set [11], 0.047 µg/cm^2; in data set [12], 0.137 µg/cm^2; in [13] it was 0.02 µg/cm^2; in data set [14], 0.2 µg/cm^2. Further, the Bound thrombin in data set [15] turned out to be 0.014 µg/cm^2; in data set [16] it was 0.28 µg/cm^2. Besides, the specific activity (antithrombin units per mg of hirudin); remaining thrombin activity on chromogenic substrate Chromozym TH with bovine thrombin (bovine) was found to be 10200 ATU/mg.

Source of the values: patent US6514734.
